Laboratory results as given in patent US20230322944A1.
Positions count from the first letter of the chain named. Blank lines part the entries; values can stand above or below the binder they belong to.

Molecular target: cynomolgus monkey CD122 on NK cells (cynomolgus monkey) (UniProt Q38J85)
Experiment: flow cytometry of blood from cynomolgus monkeys after a single IV dose of 1 mg/kg

cynomolgus monkey CD122 on NK cells (cynomolgus monkey), sequence (Q38J85 27-551 limits assumed): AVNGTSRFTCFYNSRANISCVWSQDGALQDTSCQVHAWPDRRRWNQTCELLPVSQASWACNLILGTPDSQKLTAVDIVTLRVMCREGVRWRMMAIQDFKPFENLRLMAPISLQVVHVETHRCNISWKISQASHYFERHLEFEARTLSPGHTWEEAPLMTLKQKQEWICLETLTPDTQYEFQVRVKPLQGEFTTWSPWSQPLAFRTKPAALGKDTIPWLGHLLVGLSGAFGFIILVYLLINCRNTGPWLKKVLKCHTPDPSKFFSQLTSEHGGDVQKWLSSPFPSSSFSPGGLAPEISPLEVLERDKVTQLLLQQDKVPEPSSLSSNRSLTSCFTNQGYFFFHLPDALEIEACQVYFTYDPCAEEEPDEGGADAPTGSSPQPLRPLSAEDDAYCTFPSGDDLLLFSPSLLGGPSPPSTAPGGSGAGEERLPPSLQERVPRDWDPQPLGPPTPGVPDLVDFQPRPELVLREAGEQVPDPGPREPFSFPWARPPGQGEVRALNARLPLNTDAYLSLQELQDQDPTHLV

CD122 receptor occupancy on NK cells: > 90%
B1: MAB05 (antibody, V domains shown)
VH: EVQLLESGGGLVQPGGSLRLSCAASGFTVTSYAVHWVRQAPGKGLEWLGVIWSGGSTDYNAAFISRLTISKDNSKNTVYFQMNSLRAEDTAVYYCARAGDANYDGFAYWGQGTLVTVSS
VL: DIQMTQSPSSLSASVGDRVTITCQASQSVSFLYWYQQRPGKAPRLLIYDTSNLASGVPSRFSGSGSGTSYTFTISSLQPEDIATYYCQQWSTYPLTFGQGTKVEIK

CD122 receptor occupancy on NK cells: > 90%
B2: MAB06 (antibody, V domains shown)
VH: B1 VH
VL: B1 VL with Q27S, L32M
